According to paper PMC4604684, “Characterisation of the Cullin-3 mutation that causes a severe form of familial hypertension and hyperkalaemia” (EMBO Molecular Medicine, 2015):

Target: T1, CUL3^WT-RBX1 complex, purified, tag cleaved (human, UniProt Q13618-1 1-768; P62877 1-108)
T1 construct: Cullin-3, human, wild type; RBX1, human, untagged; The pull-down sections call this protein only CUL3^WT; also called CUL3-RBX1; not shown: DAC, N-terminal, cleaved
Assay: pull-down; purified GST-CAND1 or GST on glutathione-sepharose; incubated with purified CUL3^WT or CUL3^Δ403–459 at 4°C for 1 h; washed thrice; SDS-PAGE, Coomassie
Conditions: both partners purified

T1 sequence (Q13618 whole entry, chain 1 of 2): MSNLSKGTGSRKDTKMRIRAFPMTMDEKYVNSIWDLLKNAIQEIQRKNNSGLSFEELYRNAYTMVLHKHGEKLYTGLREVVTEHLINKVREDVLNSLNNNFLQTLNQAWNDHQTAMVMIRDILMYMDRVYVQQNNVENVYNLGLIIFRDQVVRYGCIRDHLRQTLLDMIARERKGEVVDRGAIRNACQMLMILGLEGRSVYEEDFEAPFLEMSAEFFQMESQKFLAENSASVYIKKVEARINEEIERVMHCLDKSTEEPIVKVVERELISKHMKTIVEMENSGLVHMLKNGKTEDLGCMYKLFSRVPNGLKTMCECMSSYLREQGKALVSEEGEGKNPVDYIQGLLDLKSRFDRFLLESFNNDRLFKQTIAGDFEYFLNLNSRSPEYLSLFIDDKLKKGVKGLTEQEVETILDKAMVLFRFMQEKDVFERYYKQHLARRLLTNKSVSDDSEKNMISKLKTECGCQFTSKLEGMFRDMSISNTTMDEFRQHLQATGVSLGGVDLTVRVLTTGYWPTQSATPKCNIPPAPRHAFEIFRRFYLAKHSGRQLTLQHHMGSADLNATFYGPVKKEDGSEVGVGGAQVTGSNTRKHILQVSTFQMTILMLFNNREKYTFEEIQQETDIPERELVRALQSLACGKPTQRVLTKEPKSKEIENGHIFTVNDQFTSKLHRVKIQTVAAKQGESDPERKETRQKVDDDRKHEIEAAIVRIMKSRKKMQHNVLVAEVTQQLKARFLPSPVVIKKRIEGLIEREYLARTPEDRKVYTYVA
T1 sequence (P62877 whole entry, chain 2 of 2): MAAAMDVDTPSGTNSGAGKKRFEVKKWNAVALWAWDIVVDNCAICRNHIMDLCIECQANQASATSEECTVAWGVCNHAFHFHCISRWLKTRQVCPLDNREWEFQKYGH

B1: GST-CAND1 (natural protein, human, UniProt Q86VP6-1 1-1230, looked up)
chain: MASASYHISNLLEKMTSSDKDFRFMATNDLMTELQKDSIKLDDDSERKVVKMILKLLEDKNGEVQNLAVKCLGPLVSKVKEYQVETIVDTLCTNMLSDKEQLRDISSIGLKTVIGELPPASSGSALAANVCKKITGRLTSAIAKQEDVSVQLEALDIMADMLSRQGGLLVNFHPSILTCLLPQLTSPRLAVRKRTIIALGHLVMSCGNIVFVDLIEHLLSELSKNDSMSTTRTYIQCIAAISRQAGHRIGEYLEKIIPLVVKFCNVDDDELREYCIQAFESFVRRCPKEVYPHVSTIINICLKYLTYDPNYNYDDEDEDENAMDADGGDDDDQGSDDEYSDDDDMSWKVRRAAAKCLDAVVSTRHEMLPEFYKTVSPALISRFKEREENVKADVFHAYLSLLKQTRPVQSWLCDPDAMEQGETPLTMLQSQVPNIVKALHKQMKEKSVKTRQCCFNMLTELVNVLPGALTQHIPVLVPGIIFSLNDKSSSSNLKIDALSCLYVILCNHSPQVFHPHVQALVPPVVACVGDPFYKITSEALLVTQQLVKVIRPLDQPSSFDATPYIKDLFTCTIKRLKAADIDQEVKERAISCMGQIICNLGDNLGSDLPNTLQIFLERLKNEITRLTTVKALTLIAGSPLKIDLRPVLGEGVPILASFLRKNQRALKLGTLSALDILIKNYSDSLTAAMIDAVLDELPPLISESDMHVSQMAISFLTTLAKVYPSSLSKISGSILNELIGLVRSPLLQGGALSAMLDFFQALVVTGTNNLGYMDLLRMLTGPVYSQSTALTHKQSYYSIAKCVAALTRACPKEGPAVVGQFIQDVKNSRSTDSIRLLALLSLGEVGHHIDLSGQLELKSVILEAFSSPSEEVKSAASYALGSISVGNLPEYLPFVLQEITSQPKRQYLLLHSLKEIISSASVVGLKPYVENIWALLLKHCECAEEGTRNVVAECLGKLTLIDPETLLPRLKGYLISGSSYARSSVVTAVKFTISDHPQPIDPLLKNCIGDFLKTLEDPDLNVRRVALVTFNSAAHNKPSLIRDLLDTVLPHLYNETKVRKELIREVEMGPFKHTVDDGLDIRKAAFECMYTLLDSCLDRLDIFEFLNHVEDGLKDHYDIKMLTFLMLVRLSTLCPSAVLQRLDRLVEPLRATCTTKVKANSVKQEFEKQDELKRSAMRAVAALLTIPEAEKSPLMSEFQSQISSNPELAAIFESIQKDSSSTNLESMDTS
notes: CAND1, human, ORF amplified from an EST IMAGE clone and subcloned into pGEX6P-2; source: E. coli BL21, purified (glutathione resin, eluted with glutathione, dialysed); not shown: GST, N-terminal, kept
  binding result: binds
